The nanobody polyreactivity screen of Harvey et al. (2022)

Assay: yeast display, Sf9 membrane polyspecificity reagent, FACS + sequencing; frameworks hold sequencing errors
Procedure, shortened: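 Galactose-induced (36–48 hours) yeast carrying a synthetic nanobody display library were exposed to 10% biotinylated, detergent-solubilized Sf9 membrane reagent at 4 °C for 1 hour. FACS followed streptavidin microbead enrichment, using low and high (top ~1%) gates for expression (anti-HA) and reagent binding (streptavidin). Colony PCR, MiSeq 2 × 250 sequencing and CDR-length filtering followed. Labels for polyreactivity reflect the gate of origin.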

Row | Sequence | polyreactivity (PSR sort gate)
1 | QVQLQESGGGLVLAGGSLRLSCAASGSIFLFYTMGWYRQAPVKEREFVAGITLRTPTYNADSVKGRFTISRDNVKNTVYLQMNSLKPEDTAVYYCAVAVGHYTEIWYWGQGTQVTMSS | high polyreactivity
2 | QVQLQESGGGLVQAGDSQRLSCAASGNIFRFTDMGWYRKAPGKERELVAAINAGSTTYYADSVKGRFTISRDNAKNTVYLQMNSLKPEDTAVYYCAVYYLGSGTFGYWGQGAQVTVSS | high polyreactivity
3 | QVQLQESGGGLVQAGGCLSCTASGTIFGQGDMGWYRQAPGKERELVATINDGASTYYADSVKGRFTISRDKAKNTVNLQKNSLKPDDTAVYYCAVFTDITTYFGYWGQGTQVTVSS | low polyreactivity
4 | QVQLQESGGGLVQAGGGLRLSCAASGTISGPHVMGWYRQAPGEEREFVAAINVGANTYYADNVKGRFTISRDNAKNTVYLQMNSLKPEDTAVYYCAAVYYGDIGHEYWGQGTQVTVSC | low polyreactivity
5 | QVQLQESGGGLVQAGGGLRLSCAASGTISGPHVMGWYRQAPGKEREFVAAINVGANTYYADNVKGRFTISRDNAINTVYLQMNSLKPEDTAVYYCAAVYYGDIGHEYWGQGTQVTVSC | low polyreactivity
6 | QVQLQESGGGLVQAGGNPRLSCAASGNSSWSAHMGWYRQTPGKERELVASNTAGTSTNYADSVKGRFTISRDNAKNTVYLQMNSLKPEDTAVSYCATLGYFSASRTDYDYWGQGTQVTVSS | low polyreactivity
7 | QVQLQESGGGLVQAGGRLRLSCAASGNIFEADIMGWYNKAQGKERELVASITDGGSTNYADSVKGRFTINRYNAKNNVYLQMNSLKPEDTAVYYCAAIAYPDIPTYFDYDSDYFYWGQGTQVTVSS | high polyreactivity
8 | QVQLQESGGGLVQAGGSLGCAASGNISTRSEMGWYRQAPGNEREFVATINSGGLTNYADSVKGRFTISRDNAKNTVNLRMNSLKPEDTAVYYRAVYGYFSDPYDYWGQGTQVTVSS | low polyreactivity
9 | QVQLQESGGGLVQAGGSLLSCAASGTISYYREMGWYRQAPGKERELVAGIGVGTITYYADSVKGRFTISRDNAKNTVYLQMNSLKPEDTAVYYCAALIDGNDSHAYWGQGTQVTVSS | low polyreactivity
10 | QVQLQESGGGLVQAGGSLRLSCAASCTISQEDWMGWYRQAPCKEREFVASIGLGSNTNYADSLKGRFTISRDNAKNTVYLKMNSLKPEYTAVYYCASEENLAYYFKYYYWGQGTQVTVSS | low polyreactivity
11 | QVQLQESGGGLVQAGGSLRLSCAASDYIFPYKPKGWYRQAPGKEREFVATIATGGSTNYADSVKGRFTISRDNAKNTVYLQMNSLKPEDTAVYYCAVYGGPAGYLTYRGQGTQVTVSS | high polyreactivity
12 | QVQLQESGGGLVQAGGSLRLSCAASGFIFARNYIGWYRQAPGKERELVAGIGEGASTNYADSVKGRFTISRDNAKNTVYLQMNSLEPEDTAVYYCAVGDTVLGYHYYWGQGTQVTVSN | low polyreactivity
13 | QVQLQESGGGLVQAGGSLRLSCAASGFIFARNYMGWNRQAPGKERELVAGIGVGASTNYADSVKGRFTISRDNAKNTVYLQINSLEPEDTAVYYCAVGDTVLGYHYYWGQGTQVTVSI | low polyreactivity
14 | QVQLQESGGGLVQAGGSLRLSCAASGHISIKLQRGWYRAAPGKERELVATINLGAITYYADSVKGLITNSRDNAKNTVYLQLNSLKPEDTAVYYCAARWRSGFTSGDYWGQGTQVTVSS | low polyreactivity
15 | QVQLQESGGGLVQAGGSLRLSCAASGIIFDNPNMGWYRQAPGKERELVATINSGATTNYADSVKGRFTISRDNENNTVYLQMNSLIPEDTAVYYCAVDLSPTYFYFWGQGTQVTVSS | high polyreactivity
16 | QVQLQESGGGLVQAGGSLRLSCAASGNIFLGDTMGWYRQAPGKEREFVAGIARGGNPYYADSVKGRFTISRNNAKNTVFLQKNSLKPEDTAVHYCAVQRSHASDYNYWGQGTQVTVSS | low polyreactivity
17 | QVQLQESGGGLVQAGGSLRLSCAASGNISVTGFMGWYRQAPGKERELVASIGIGGTTYYADSVKGRFSISRDNAKNTVYVQMNSLKPEDTAVYYCAARYLYYAYSYWGQGTQVTVRS | low polyreactivity
18 | QVQLQESGGGLVQAGGSLRLSCAASGNISVTGFMGWYRQAPVKERELVASIGIGGTTYYADSVKGRFSISRDNAKNTVYLQMNSLKPEDTAVYYCAARYLYYAYSYWGQGSQVTVSS | low polyreactivity
19 | QVQLQESGGGLVQAGGSLRLSCAASGSIFADVQMGWYRQAPGKERELVASINFRGTTSYYADSVKGRFTISRDNAKNTVYLQMSSLKPEETEVYYCAVGRSEGGDFAYWGQGTHVTVSS | low polyreactivity
20 | QVQLQESGGGLVQAGGSLRLSCAASGSIFDGFNMGWYRQAQGKEREFVAAISYGASTYYADSVKGRFTVSRDNAKNSVYLQMNSLKPEDTAVYYCAVYDELYHVLVYWGRGTQVTVSS | low polyreactivity
21 | QVQLQESGGGLVQAGGSLRLSCAASGSIFDYVSMGWYRQAPGEERELVVTITLGSNTYYADSVKGRFTISSDIAKNSVYLQMNSLNPEDTAVYYCAASALWGYVYPYWGLGTQVTVSS | high polyreactivity
22 | QVQLQESGGGLVQAGGSLRLSCAASGSIFHLHIMCWYRQAPGKESESVAAISYGTSTYYADSVKGRFTICRDNAKNTVYLQMNSPKPDDTAVYYCAALFLVSKHHHYWGEGTQVTVSS | low polyreactivity

Row | Sequence | polyreactivity (PSR sort gate)
23 | QVQLQESGGGLVQAGGSLRLSCAASGSIFVSVTMGWYRQAPGKERELGASIGRGSTTNHADSVKGRFTISRDNAKNIVYLLMNSLKPEDTAVYYCAALESYGKYHGYWGQGTLVTVSS | low polyreactivity
24 | QVQLQESGGGLVQAGGSLRLSCAASGSIFYVYGMGWYRLAPGKVRELVAGINAGTNTNYADSVRGRFTISRDNAKNTVHLQMTSLNPEETAVYYCAADGNGYQAHEYWGQGTQVTVSS | high polyreactivity
25 | QVQLQESGGGLVQAGGSLRLSCAASGSISGPQVMGWYRQAPGKEREFVAAINVGANTYYADNVKGRFTISRDNAKNTVYLQMTSLKPEDTAVYYCAAVYYGDIGHEYWGQGTQVTVSC | low polyreactivity
26 | QVQLQESGGGLVQAGGSLRLSCAASGSISHYIFMCWYRQSPGKEREFVAGIGYGGTTNYADSVKGRFTISRDNAKNTVYLQMISLTPEDTAMYYCAAREATEFYLYYWGQGTQVTVSS | low polyreactivity
27 | QVQLQESGGGLVQAGGSLRLSCAASGSISHYIFMGWYRQAPGKEREFVAGIGYGGTTNYADSVKGRFTISRDNAINTVYLQMNSLKPEDTAMYYCAAREATEFYLYYWGQGTQVTVSS | low polyreactivity
28 | QVQLQESGGGLVQAGGSLRLSCAASGSISRLDYMGWYRQASGKERELVAAIDNGSTTYYADSVKGRLTISRDNAKYTVYLQMNSLKTEDTAVYFCAAVRGRGGTHAYWGQGTQVTVSG | low polyreactivity
29 | QVQLQESGGGLVQAGGSLRLSCAASGSISSRDAMGWYRQAPGKEREFVATIASGTTTYYADSVKGSFTISRDNAENTVYLQTNSLKPEDTAVYYCAAPTIQIYPFYYWGQGTQVTVSC | high polyreactivity
30 | QVQLQESGGGLVQAGGSLRLSCAASGSITRYYDMGWYRQAPGKEREFVAGISGGAITYYADSVKGRFTISRDNAKNTVYLQMNSLKPEDTAVYYCAADTGVYQYHSYWGQGTQVTVSS | low polyreactivity
31 | QVQLQESGGGLVQAGGSLRLSCAASGSIYDGFNMGWYRQAPGKEREFVAAISYGASTYYADSVKGRFTVSRDNAKNSVYLQMNSLKPEDTAVYYCAVYDELYHVLVYWGRGTQVTVSS | low polyreactivity
32 | QVQLQESGGGLVQAGGSLRLSCAASGSNFKVVEMGLYRQAPAKDREFVATIGEGGNTYYADSVKGRFTISRDNAKNTVYLQMNSLKPEDTAVYFYAVVLGTSYRYTYWGQGTQVTVSS | low polyreactivity
33 | QVQLQESGGGLVQAGGSLRLSCAASGTIFRISDMGSYRQAPGKELEFVAAITYGANTYYADSGKGRFTISRDNAKNTVYLQMNSLKPEDTAVYYCAVPPVKETILDYWGQGTQVTVSS | low polyreactivity
34 | QVQLQESGGGLVQAGGSLRLSCAASGTISPLPAMGWYRQAPGKERDFVAGIDTGAITNYADSVKGRFTISRDNAKHTVYLQMNSLKPEETAVYYCADFPAAYDYYERYYTYWGQGTQVTVSS | low polyreactivity
35 | QVQLQESGGGLVQAGGSLRLSCAASGTISPLPAMGWYRQAPGKEREFVAGIDTGAITNYADSVKGRFTISRDNGKNTVYLQMNSLNPEDTAVYYCAVFRGAYDYYEGYYTYWGQGTQVTVSS | low polyreactivity
36 | QVQLQESGGGLVQAGGSLRLSCAASGVIFARNYMGWYRQAPGKERELVAGIGVGASTNYADSVKGRFTISRDNAKNTVYLQMNRLEPEDTAVYYCAVVDTVLGYHYYWGQGTQVTVSN | low polyreactivity
37 | QVQLQESGGGLVQAGGSLRLSCAASGYIFPRIDMGWYRQAPGKEREFDAGISYDAITNYADSVKGRFTISLDNAKNTVYLQMNSLKPEDTAVYYCAVSYYGTPLFTYWGQGTQVTVSS | high polyreactivity
38 | QVQLQESGGGLVQAGGSLRLSCAASGYISLAQTIGWFRQAPGKEREFVASIALGSSTYYTDSVKGSFTISRDNAKTTVYLQMNSLKPDDTAVYYCAARVGASYAHDYWGQGTQVTVSS | low polyreactivity
39 | QVQLQESGGGLVQAGGSLRLSCAASGYISLAQTIGWYRQAPGKEREFVASIALGSRTYYTDSVKGSFTISRDNAKTTVYLQMNSLKAEDTAVYYCAARVGASYAHDYWGQGTQVTVSS | low polyreactivity
40 | QVQLQESGGGLVQAGGSLRLSCAASGYISLAQTIGWYRQAPGKEREFVASIALGSSTYYTDSVKGSFTISRDNANTPVYLQMNSLKPEDTAVYYCAARVGASYAHDYWGQGTQVTVSC | low polyreactivity
41 | QVQLQESGGGLVQAGGSLRLSCAASGYISQSSVMGWYRQASGKEREFVASISYGATTYYADSVKGRFTISRDNAKNTVYLQTNSPKPEDTAVYYCAVWVKRGFSHRYWGQGTQVTVSS | high polyreactivity
42 | QVQLQESGGGLVQAGGSLRLSCAASGYISYFVGMAWYRQAPGKEREFVASIADGSNTYYADSVKGRFTISRDNAKNTVYLQRNSLKPEDTAVFYCAVEDSWTYRFDYWGQGTLVTVSS | high polyreactivity
43 | QVQLQESGGGLVQAGGSLRLSCAASSNHSTLDVMGWYRQAPGKEREIVASIGSGGITNYADSVKGRFTISRDNAKNTVYLQMNSLKPEDTAVYYFAVLNQAYTDLIYWGQGTQVTVSS | high polyreactivity
44 | QVQLQESGGGLVQAGGSLRLSCAATGTIFTDRFMGWYLQAPGKERELVACISPGTSTNYADSVKGRFTISRDNAKNTVYLKINSLKPEDTAVYYCAADWSTGNNLPYWGQGTQVTVSS | high polyreactivity
